The source of these data is patent publication US7256007B2, “Methods of regulating cytokine signalling” (The Walter and Eliza Hall Institute of Medical Research, priority 2000, dated 2007).

B6: SOCS-3 (recombinant, His-tagged) (protein)
chain: MVTHSKFPAAGMSRPLDTSLRLKTFSSKSEYQLVVNAVRKLQESGFYWSAVTGGEANLLLSAEPAGTFLIRDSSDQRHFFTLSVKTQSGTKNLRIQCEGGSFSLQSDPRSTQPVPRFDCVLKLVHHYMPPPGTPSFSLPPTEPSSEVPEQPPAQALPGSTPKRAYYIYSGGEKIPLVLSRPLSSNVATLQHLCRKTVNGHLDSYEKVTQLPGPIREFLDQYDAPL

Square brackets hold non-standard residues; d marks the D form. Ends that are not written are not given here. pY = N[C@@H](Cc1ccc(OP(=O)(O)O)cc1)C(=O)O

One assay concerns the target T1, SOCS-3 (Mus musculus, UniProt O35718).
T1 construct: hexahistidine (pET15b) (N); made in house; host or cells: E. coli BL21 DE3 pLysS
T1 sequence (O35718 1-225): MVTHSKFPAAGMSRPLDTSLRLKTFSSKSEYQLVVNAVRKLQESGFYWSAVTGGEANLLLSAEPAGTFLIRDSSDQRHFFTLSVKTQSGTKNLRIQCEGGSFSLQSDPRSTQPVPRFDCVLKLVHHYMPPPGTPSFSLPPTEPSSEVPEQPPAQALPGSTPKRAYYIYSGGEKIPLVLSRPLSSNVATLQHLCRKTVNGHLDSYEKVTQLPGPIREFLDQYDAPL
Kind of assay: Biosensor (SPR) analysis of recombinant SOCS-3 binding to immobilized biotinylated phosphopeptide. The arrangement: species or system murine. The conditions noted are these: non-specific control channel on the same chip. The protocol:
Purified protein was refolded by dialysis into PBS containing 2 mM DTT, 2 mM EDTA and 0.02% v/v Tween 20. Refolded material was purified to homogeneity by ion exchange chromatography on a Mono S column (Pharmacia).
Phosphopeptides containing an N-terminal biotin moiety were immobilized onto a streptavidin-coated Biosensor chip (Pharmacia) at a density of ˜200 Resonance Units (Rus). […] Binding profiles were analyzed using the BIAevaluation software version 3.0 (Pharmacia).

In a further assay the test system is EPOR/gp130Y757F. The assay is described as follows: APRE-luc luciferase reporter assay in transiently transfected 293T cells, EPO stimulated. The conditions noted are these: gp130 cytoplasmic domain with Y757F mutation, 10U/ml EPO overnight. It counts as cell-based. The protocol: Generation of the expression vectors for SOCS-1 and SOCS-3, luciferase assays and Western blot analysis have been described previously (Nicholson et al., 1999). Briefly, 293T cells were transiently transfected with SOCS expression plasmids, a LIF-responsive reporter construct (APRE-luc; Endo et al., 1997) and a β-galactosidase reporter construct under a constitutive promoter (Srα-β-gal; Ogilvy et al., 1998). Luciferase activity from triplicate samples was determined and normalized against β-galactosidase activity.
It was therefore important to confirm these findings using a biological assay. A chimeric receptor was created that contained the erythropoietin receptor (EPOR) extracellular domain and the gp130 cytoplasmic domain (EPOR/gp130). A second receptor was created containing the EPO receptor extracellular domain and the gp130 cytoplasmic domain in which tyrosine 757 had been mutated to phenylalanine (EPOR/gp130Y757F). 293T cells were transiently transfected with cDNAs expressing the receptor constructs and either SOCS-3 or SOCS-1 in the presence of the APRE-luc and Srα-β-gal reporter genes. Cells were then incubated in the presence of 10U/ml EPO overnight and luciferase activity determined. Mutation of Y757 in the gp130 cytoplasmic domain has been reported to result in a hyperactive receptor complex, presumably from the loss of a negative regulator such as SHP-2. […]
A general note: In a reporter assay the amount or activity of a reporter protein is the signal.

Assay [1] concerns the target B6. Kind of assay: competition, SPR.
In assay [2] the target is T2, gp130(674-688) pY681 control phosphopeptide (mouse, not fully specified (N-terminus); printed as FNSKDQM(pY)SDGNFTD; also: biotinylated, site not given here).
T2 chain: FNSKDQM[pY]SDGNFTD-NH2
The assay is described as follows: SPR. On the technique in general: SPR reads the build-up and loss of mass on a sensor chip optically.

Chain of EPOR/gp130Y757F (Q00560 640-917 Y757F limits assumed): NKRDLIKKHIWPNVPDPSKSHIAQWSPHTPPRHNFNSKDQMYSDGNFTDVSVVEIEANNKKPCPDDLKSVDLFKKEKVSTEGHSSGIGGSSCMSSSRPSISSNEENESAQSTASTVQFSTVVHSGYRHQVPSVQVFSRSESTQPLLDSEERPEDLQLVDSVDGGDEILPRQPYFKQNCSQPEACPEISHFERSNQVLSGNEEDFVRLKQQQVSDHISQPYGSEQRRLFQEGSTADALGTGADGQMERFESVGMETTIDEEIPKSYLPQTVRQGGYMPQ

Consider “FNSKDQM(pY)SDGNFTD (FNSKDQM[pY]SDGNFTD-NH2; N-terminus assumed; SMILES CSCC[C@H](NC(=O)[C@H](CCC(N)=O)NC(=O)[C@H](CC(=O)O)NC(=O)[C@H](CCCCN)NC(=O)[C@H](CO)NC(=O)[C@H](CC(N)=O)NC(=O)[C@@H](N)Cc1ccccc1)C(=O)N[C@@H](Cc1ccc(OP(=O)(O)O)cc1)C(=O)N[C@@H](CO)C(=O)N[C@@H](CC(=O)O)C(=O)NCC(=O)N[C@@H](CC(N)=O)C(=O)N[C@@H](Cc1ccccc1)C(=O)N[C@H](C(=O)N[C@@H](CC(=O)O)C(N)=O)[C@@H](C)O) [gp30(674-688) phosphopeptide, non-cognate gp130 phosphopeptide immobilized as non-specific control]”, for which the “specific binding of SOCS-3 to immobilized peptide” value with SOCS-3 is given as “no specific binding was detected”.

With “SOCS-3: suppressor of cytokine signaling 3, expressed from transfected cDNA in 293T cells”, in the assay with EPOR/gp130Y757F, the “SOCS-3 DNA giving 50% inhibition of luciferase activity” value is reported as 54 ng.

B1: Ac(pY)STVVHSG (peptide)
chain: Ac-[pY]STVVHSG-NH2
SMILES: CC(=O)N[C@@H](Cc1ccc(OP(=O)(O)O)cc1)C(=O)N[C@@H](CO)C(=O)N[C@H](C(=O)N[C@H](C(=O)N[C@H](C(=O)N[C@@H](Cc1c[nH]cn1)C(=O)N[C@@H](CO)C(=O)NCC(N)=O)C(C)C)C(C)C)[C@@H](C)O
The IC50 is the point on the concentration scale where inhibition reaches its midpoint. B1: the 50% inhibitory concentration (IC50) in assay [1] is 9600 nM.

B2: STASTVE(pY)STVVH (peptide)
chain: STASTVE[pY]STVVH-NH2
modifications: N-terminus assumed
SMILES: CC(C)[C@H](NC(=O)[C@@H](NC(=O)[C@@H](NC(=O)[C@H](CO)NC(=O)[C@H](Cc1ccc(OP(=O)(O)O)cc1)NC(=O)[C@H](CCC(=O)O)NC(=O)[C@@H](NC(=O)[C@@H](NC(=O)[C@H](CO)NC(=O)[C@H](C)NC(=O)[C@@H](NC(=O)[C@@H](N)CO)[C@@H](C)O)[C@@H](C)O)C(C)C)[C@@H](C)O)C(C)C)C(=O)N[C@@H](Cc1c[nH]cn1)C(N)=O
Consider B2, for which the concentration for half-maximal inhibition (IC50) in assay [1] is 77 nM.

B3: AcTVE(pY)STVVHSG (peptide)
chain: Ac-TVE[pY]STVVHSG-NH2
SMILES: CC(=O)N[C@H](C(=O)N[C@H](C(=O)N[C@@H](CCC(=O)O)C(=O)N[C@@H](Cc1ccc(OP(=O)(O)O)cc1)C(=O)N[C@@H](CO)C(=O)N[C@H](C(=O)N[C@H](C(=O)N[C@H](C(=O)N[C@@H](Cc1c[nH]cn1)C(=O)N[C@@H](CO)C(=O)NCC(N)=O)C(C)C)C(C)C)[C@@H](C)O)C(C)C)[C@@H](C)O
As to B3, the half-maximal inhibitory concentration (IC50) in assay [1] was 120 nM.

B4: AcVA(pY)STVVHSG (peptide)
chain: Ac-VA[pY]STVVHSG-NH2
SMILES: CC(=O)N[C@H](C(=O)N[C@@H](C)C(=O)N[C@@H](Cc1ccc(OP(=O)(O)O)cc1)C(=O)N[C@@H](CO)C(=O)N[C@H](C(=O)N[C@H](C(=O)N[C@H](C(=O)N[C@@H](Cc1c[nH]cn1)C(=O)N[C@@H](CO)C(=O)NCC(N)=O)C(C)C)C(C)C)[C@@H](C)O)C(C)C
For the molecule B4, in assay [1], the concentration for half-maximal inhibition (IC50) is 550 nM.

B5: STASTVE(pY)STVVHS (peptide)
chain: STASTVE[pY]STVVHS-NH2
modifications: N-terminus assumed
SMILES: CC(C)[C@H](NC(=O)[C@@H](NC(=O)[C@@H](NC(=O)[C@H](CO)NC(=O)[C@H](Cc1ccc(OP(=O)(O)O)cc1)NC(=O)[C@H](CCC(=O)O)NC(=O)[C@@H](NC(=O)[C@@H](NC(=O)[C@H](CO)NC(=O)[C@H](C)NC(=O)[C@@H](NC(=O)[C@@H](N)CO)[C@@H](C)O)[C@@H](C)O)C(C)C)[C@@H](C)O)C(C)C)C(=O)N[C@@H](Cc1c[nH]cn1)C(=O)N[C@@H](CO)C(N)=O
On to B5, for which the concentration for half-maximal inhibition (IC50) in assay [1] worked out at 61 nM.

For the molecule B6, in assay [2], the binding result was “no binding”.

B7: gp130 phosphopeptide V11A (peptide)
chain: STASTVE[pY]STAVHSG-NH2
modifications: N-terminus assumed
SMILES: CC(C)[C@H](NC(=O)[C@H](C)NC(=O)[C@@H](NC(=O)[C@H](CO)NC(=O)[C@H](Cc1ccc(OP(=O)(O)O)cc1)NC(=O)[C@H](CCC(=O)O)NC(=O)[C@@H](NC(=O)[C@@H](NC(=O)[C@H](CO)NC(=O)[C@H](C)NC(=O)[C@@H](NC(=O)[C@@H](N)CO)[C@@H](C)O)[C@@H](C)O)C(C)C)[C@@H](C)O)C(=O)N[C@@H](Cc1c[nH]cn1)C(=O)N[C@@H](CO)C(=O)NCC(N)=O
Turning to B7, the half-inhibitory concentration (IC50) in assay [1] is 3400 nM.

B8: AcAE(pY)STVVHSG (peptide)
chain: Ac-AE[pY]STVVHSG-NH2
SMILES: CC(=O)N[C@@H](C)C(=O)N[C@@H](CCC(=O)O)C(=O)N[C@@H](Cc1ccc(OP(=O)(O)O)cc1)C(=O)N[C@@H](CO)C(=O)N[C@H](C(=O)N[C@H](C(=O)N[C@H](C(=O)N[C@@H](Cc1c[nH]cn1)C(=O)N[C@@H](CO)C(=O)NCC(N)=O)C(C)C)C(C)C)[C@@H](C)O
On to B8, for which, in assay [1], the IC50 came out at 580 nM.

B9: gp130 phosphopeptide H13A (peptide)
chain: STASTVE[pY]STVVASG-NH2
modifications: N-terminus assumed
SMILES: CC(C)[C@H](NC(=O)[C@@H](NC(=O)[C@@H](NC(=O)[C@H](CO)NC(=O)[C@H](Cc1ccc(OP(=O)(O)O)cc1)NC(=O)[C@H](CCC(=O)O)NC(=O)[C@@H](NC(=O)[C@@H](NC(=O)[C@H](CO)NC(=O)[C@H](C)NC(=O)[C@@H](NC(=O)[C@@H](N)CO)[C@@H](C)O)[C@@H](C)O)C(C)C)[C@@H](C)O)C(C)C)C(=O)N[C@@H](C)C(=O)N[C@@H](CO)C(=O)NCC(N)=O
Consider B9, for which the 50% inhibitory concentration (IC50) in assay [1] was determined as 770 nM.

B10: gp130 phosphopeptide S9A (peptide)
chain: STASTVE[pY]ATVVHSG-NH2
modifications: N-terminus assumed
SMILES: CC(C)[C@H](NC(=O)[C@@H](NC(=O)[C@@H](NC(=O)[C@H](C)NC(=O)[C@H](Cc1ccc(OP(=O)(O)O)cc1)NC(=O)[C@H](CCC(=O)O)NC(=O)[C@@H](NC(=O)[C@@H](NC(=O)[C@H](CO)NC(=O)[C@H](C)NC(=O)[C@@H](NC(=O)[C@@H](N)CO)[C@@H](C)O)[C@@H](C)O)C(C)C)[C@@H](C)O)C(C)C)C(=O)N[C@@H](Cc1c[nH]cn1)C(=O)N[C@@H](CO)C(=O)NCC(N)=O
On to B10, for which the half-maximal inhibitory concentration (IC50) in assay [1] stood at 72 nM.
